Holding throughout (experiment): cell-based or functional assay
Assay [1] addresses glycoprotein D of HSV-2 186, on infectious virus (HSV-2 (strain 186)).
The target of assay [2] is glycoprotein D of HSV-2 00040 (clinical strain), on infectious virus (HSV-2 (clinical strain 00040)).
In assay [3] the target is glycoprotein D of HSV-1 KOS, on infectious virus (HSV-1 (KOS strain), UniProt A1Z0Q5 26-394).
Assay [4] concerns the target glycoprotein D of HSV-1 00410 (clinical strain), on infectious virus (HSV-1 (clinical strain 00410)).

Chain of glycoprotein D of HSV-1 KOS, on infectious virus (A1Z0Q5 26-394 limits assumed): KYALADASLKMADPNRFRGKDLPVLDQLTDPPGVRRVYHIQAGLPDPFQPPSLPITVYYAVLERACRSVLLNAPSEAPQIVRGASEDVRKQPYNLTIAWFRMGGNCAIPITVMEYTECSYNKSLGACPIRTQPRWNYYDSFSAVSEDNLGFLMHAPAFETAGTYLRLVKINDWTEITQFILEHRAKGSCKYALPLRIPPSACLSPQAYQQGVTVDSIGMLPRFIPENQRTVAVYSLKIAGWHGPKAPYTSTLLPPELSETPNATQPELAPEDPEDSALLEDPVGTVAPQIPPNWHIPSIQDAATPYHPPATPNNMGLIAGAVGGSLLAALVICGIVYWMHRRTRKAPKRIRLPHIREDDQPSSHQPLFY

B1: scFv E425 (scFv, not shown: small tags and cut ends)
scFv: QVQLQQSGAGVKKPGSSVRVSCSASGGTLRTYALSWVRQVPGQGFEWMGRIIPMFGKTDYAQKFQGRLSITADKSMDTGFMELTSLTSEDTAVYYCARDLTTLTSYNWLDIWGQGTLVTVSSGGGGSGGGGSGGGGSETTLTQSPGTLSLSPGERATLSCRASQSVSSNYLAWYQKKPGQAPRLLIYGASSRATGIPDRFSGSGSGTDFTLTINRLEPEDFAVYYCQQYGRSPTFGQGTKVEIKR
For B1, the “IC50, plaque reduction assay in Vero cells (HSV-2 186)” value in assay [1] worked out at 4.5 nM. In assay [2], the “IC50, plaque reduction assay in Vero cells (HSV-2 00040)” value came out at 1.16 nM. Besides, the “IC50, plaque reduction assay in Vero cells (HSV-1 KOS)” value in assay [3] is 2.2 nM. Further, in assay [4], the “IC50, plaque reduction assay in Vero cells (HSV-1 00410)” value came to 1.8 nM.

The record behind these values is patent publication EP2379590B1 (Development Center for Biotechnology, dated 2018).
